For this assay, the target named is Her-2 (human) (UniProt P04626). Kind of assay: antibody titration on FFPE SKBR-3 (positive) and MDA-MB-468 (negative) cells, non-proximal direct VeraTag release with 200 uM methylene blue, multi-parameter curve fit, single site.

What is called Kd is the concentration at which binding is half-saturated. The low end stands for higher affinity, the high end for lower affinity.

Regarding “Ab8-Pro11 (monoclonal antibody Ab8 against the cytoplasmic domain of HER2, Lab Vision, conjugated to VeraTag reporter Pro11)”, the equilibrium dissociation constant (Kd) came to 8 µg/mL.

These data come from patent KR20110120890A.
